Test results: doi:10.1101/2024.12.20.629688, “The PH domain in the ArfGAP ASAP1 drives catalytic activation through an unprecedented allosteric mechanism” (bioRxiv, 2024)

T1: ASAP1 ZA domain (Arf GAP and ankyrin repeat domains), [431–724]ASAP1 (UniProt Q9QWY8 431-724)
T1 construct: Isotopically labelled for the PRE experiment; also called ^ΔPHZA; isolated ZA domain; source: recombinant; expression not described
T1 sequence (looked up): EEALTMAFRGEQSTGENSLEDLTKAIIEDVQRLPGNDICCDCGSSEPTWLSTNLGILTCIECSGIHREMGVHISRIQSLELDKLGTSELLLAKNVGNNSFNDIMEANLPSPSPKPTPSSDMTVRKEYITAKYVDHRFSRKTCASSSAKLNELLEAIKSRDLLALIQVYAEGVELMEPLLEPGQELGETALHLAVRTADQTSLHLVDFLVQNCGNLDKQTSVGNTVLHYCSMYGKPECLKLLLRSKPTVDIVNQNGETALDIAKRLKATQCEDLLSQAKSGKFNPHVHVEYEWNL


Tests used:
[1] = molecular target: T1, ASAP1 ZA domain (Arf GAP and ankyrin …); assay: NMR paramagnetic relaxation enhancement; Cys159-MTSL myrArf1 (non-hydrolysable GTP analog) alone or in complex with wt PH on nanodiscs, 100 μM, with 100 μM isolated isotopically labelled ZA domain; conditions: both partners purified
[2] = molecular target: T2, myristoylated human Arf1, GTP-bound form, anchored on membrane (nanodiscs or LUVs) (human, UniProt P84077 1-181, N-myristoylated); assay: cell-based or functional assay
T2 sequence (P84077 whole entry, the tested form may be a part): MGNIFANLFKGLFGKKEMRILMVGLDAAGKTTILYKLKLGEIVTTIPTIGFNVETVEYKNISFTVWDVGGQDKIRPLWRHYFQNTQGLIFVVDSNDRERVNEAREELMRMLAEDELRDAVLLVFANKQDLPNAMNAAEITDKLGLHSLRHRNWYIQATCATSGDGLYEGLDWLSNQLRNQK

[3] = molecular target: T2, myristoylated human Arf1, GTP-bound …; assay: other fluorescence titration + other: inhibition of the GAP activity of wt PZA; proxies for affinity: (1) rate of mant-GTP dissociation from myrArf1 (Trp to mant FRET) against PH concentration, LUVs with 5 mol% PI(4,5)P2, excess GTP; (2) IC50 of PH domain on GTP hydrolysis in 3 min with myrArf1·GTP below the Km and 1 nM wt PZA; conditions: both partners purified

Row | Kd [1] [µM] | “in trans” effect of the PH domain on GTP hydrolysis on myrArf1 by the isolated ZA domain (LUVs), relative to wt PH [2] | affinity relative to wt PH [3] | Binder
1 | 100 to 1000 |  |  | Cys159-MTSL tagged myrArf1 (natural protein, N-myristoylated; MTSL spin label on the native Cys159, human Arf1, UniProt P84077; source: E. coli BL21 Star (DE3), co-expressed with yeast NMT, purified; spin-labelled on nanodiscs) not shown
2 |  | 0.01 fold of wt PH | ~0.5 fold of wt PH | ΔN14 ASAP1 PH domain, [339–451]ASAP1 (domain or fragment, UniProt Q9QWY8 339-451, looked up, ASAP1 PH domain without residues 325-338 (the first 14 residues of the wt PH construct), residues 339-451; also called ^ΔN14PH) GSEKKGFLLKKSDGIRKVWQRRKCAVKNGILTISHATSNRQPAKLNLLTCQVKPNAEDKKSFDLISHNRTYHFQAEDEQDYIAWISVLTNSKEEALTMAFRGEQSTGENSLED
